Test: yeast display, Sf9 membrane polyspecificity reagent, FACS + sequencing; frameworks hold sequencing errors
Procedure, shortened: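 Galactose-induced (36–48 hours) yeast carrying a synthetic nanobody display library were exposed to 10% biotinylated, detergent-solubilized Sf9 membrane reagent at 4 °C for 1 hour. FACS followed streptavidin microbead enrichment, using low and high (top ~1%) gates for expression (anti-HA) and reagent binding (streptavidin). Colony PCR, MiSeq 2 × 250 sequencing and CDR-length filtering followed. Labels for polyreactivity reflect the gate of origin.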

Sequence	polyreactivity (PSR sort gate)
QVQLVESGGGLVQAGGRLRLSCAASGSTLSGNAMGGYRQAPGKERELVAAITSSGGRTYYADSVKGRFTISRDNAKNTVYLQMNSLKPEDTAVYYCAKDRYGWGQGTQVTVSS	high polyreactivity
QVQLVESGGGLVQAGGRLRLSCAASGSTSQSNAMGWYRQAPGKERELVAAISWSGTSTYYADSVKGRFTISRDNAKNTVYLQMNSLKPEDTAVYYCAADYIFDYDYWGQGTQVTVSS	low polyreactivity
QVQLVESGGGLVQAGGRLRLSCAASGTIFPLNAMGWYRQAPGKERELVATISSGGSTYYADSVKGRFTISRDNAKNTVYLQMNSLKPEFTAVYYCAADSWVQFEYWGQGTQVTVSS	low polyreactivity
QVQLVESGGGLVQAGGRLRLSCAASGTTAENVMGWYRQAPGKERELVAAISSRGGSTYYADSVKGRFTISRDNAKNTVYLQKNSLKPEDTAVYYCAAEYVSHFSGYRYDYWGQGTHVTVSS	low polyreactivity
QVQLVESGGGLVQAGGRLRLSCAASGTTFFLYAMGWYRQAPGKERELVASISDGSSTNYADSVKVRFTISRDNAKNTVYLQMNSLKPEDTAVYYCAADFERRRYDYWGQGTQVTVSS	low polyreactivity
QVQLVESGGGLVQAGGRLRLSCAASGYIFNYDMGWYRPAPGKERELVAAINYSGRTYYADSVKGRFTISRDNAKNTVYLQMNRLKAEDTAVYYCAARIIVDDVGTKYYYWGQGTQVTVSS	high polyreactivity
QVQLVESGGGLVQAGGRLRLSCAASGYTFSIYDMGWYRPAPGKERELVAAISWSGGSTYYADSVKGRFTISRDHAKNTVYLQMNSLKPEDTAVYYCAAKRHGSEVGRGRDYWGQGTQVTVSS	high polyreactivity
QVQLVESGGGLVQAGGRLRLSCADSGRIFLYYAKGWYRQAPGKEPELVAAISGGGGRTYYADSVKGRFTISRDNAKNTVYLQMNSLKPEDTAVYYWAAGVYTGQHEFDYWGQGTQVTVSS	low polyreactivity
QVQLVESGGGLVQAGGRLRLSCAPSGTTFNPYTMGLYRQAPGKEGELVATITRIGGSTYYADSVKGRFTISRDNAKNTVYLQMNSLKPEDTAVYYCAADHYRSVRWRSNYTYRVNYWGQGTQVTVSS	high polyreactivity
QVQLVESGGGLVQAGGRLRLSCASSGITFWTYAMGWYRQAPGKERELVAAISKSGGSTYYADSVKGRYTISRDNAKNNVYFELNSLKPEDTAVYYCAAKGLRYRDIDYDYWGQGTQVTVSS	low polyreactivity
QVQLVESGGGLVQAGGRLRLSSAASGRTFFGSYAMGWYRQAPGKERELVADIRSGGNTNYADSVKGRFTISRDNAKNTVYLQMNRLKPDDTAVYYCASDGYSIVVYHPDYRYVYWGQGTQLTVSS	low polyreactivity
QVQLVESGGGLVQAGGRLRLTCAASGFTFRYYAMGWYRQAPGKERELVATITRGGSTNYAESVKWRFTISRDNAKNTVYFQMNSLKPEDTAVYYCATGKIYWRGYEYWGQGTQVTVSS	high polyreactivity
QVQLVESGGGLVQAGGRLSLSCAASGITFLGYAMGWYREAPGKDSELVAAISSGGSTYYADSVKGRFTISRDNAKNTVYLQMNILKPEDTAVYYCAKAVYYRDPYGGDYWGQGTQVTVSS	low polyreactivity
QVQLVESGGGLVQAGGRLSLSSAASGITFRNYAMGWYRQAPGKERQLVAAISRRGGSTYYADSVKGRFTISRDNAKNTVYLQMNSLKPEDTAVYYCAKSPDTAKEYDYWGQGTQVTVSS	high polyreactivity
QVQLVESGGGLVQAGGSFRLSCAASGGTFDTYVMGWYRQAPGKERELVAVITRGASTYYADSVKGRFTISRDNAKNTVYLQMNSLKPEDTAVYYCAAAVYSPDYYRFWYSFDYWGQGTQVTVTS	low polyreactivity
QVQLVESGGGLVQAGGSFRLSCAASGRIFSPNAMGWYRQAPGKEREFVAAINDRGGNTYYADSVKGRFTISRDNAKNTVYLQMNSLKPEDTAVYYCAATVTVFYTRYYYWGQGTQVTVSS	high polyreactivity
QVQLVESGGGLVQAGGSGRLSCAASGSIFFAYGMGWYRQATGTERELVAAIPNSGTSTYYADSVKGRFTISRDNAKNSDYLQMNSLKPEDTAVFYCARDNEPDYYSYPYDYWGEGTQVTVSS	low polyreactivity
QVQLVESGGGLVQAGGSHRISCAASGNTFVINTMGWYRQAPGKERELVAGISRRGTSTYYADSVKGRFTISRDNAKNTVYLQMNSLKPEDTAVYYCAVYAEIVRYEYWGQGTQVTVSS	high polyreactivity
QVQLVESGGGLVQAGGSHRLSCAASGFIFYYYTRGWYRQAPGKERELVAAISRGRGSTYYADSVKGRFTISRDNAKNTVYLQMNSLKPEDTAVYYCARTDRRLGAHQGDYWGQGTQVTVSS	high polyreactivity
QVQLVESGGGLVQAGGSHRLSCAASGFTSAVNTMGWYRQAPGKEREFVASISRNGGSTYYADSVKGRFTITRDNAKNTVYLQINSLKPEDTAVYYCNTRVPNYAFRRSRYDYWGQGTQVTVSS	high polyreactivity
QVQLVESGGGLVQAGGSHRLSCAASGIIFGRYAMGSYIQAPGKERELVAAITSGGSTSYSDSVKGRFTISRDNAKNTVYLQMNSLKPEDTAVYYCAARGWYVRHPQNYGYWGQGTQVTVSS	high polyreactivity
QVQLVESGGGLVQAGGSHRLSCAASGIIFILYTMGWYRQAPGKERELVATISSGGGSTFYADSVKGRFTISRDNAKNTVYLQMNSLKPEDTAVYYCAAYPVFGYSYDYWGQGTQVTVSS	low polyreactivity

Sequence	polyreactivity (PSR sort gate)
QVQLVESGGGLVQAGGSHRLSCAASGLIFYYYAMGWYRQAPGKERELVAAITWTAGSTSYADSVKGRFTISRDNAKNTVYLQMNSLKPEDTAVYYCAADYRHDTFSNEYDYWGQGTQVTVSS	low polyreactivity
QVQLVESGGGLVQAGGSHRLSCAASGRIFGTYAMGWYRQAPGKDRELVAAISFSGGSTYYADSVKGRFTISRDNAKNTVYLQMNSLKPDDTAVYYGAAGYRTYYGYRYGYWGQGTQVTVSS	high polyreactivity
QVQLVESGGGLVQAGGSHRLSCAASGRIFNNNAMGWYRQAPGTEREFVAAISSGGGSTYYADSVKGRFTISRDNAKNTVYLQMNSLKPEDTAVYYCAARRHGRVDYSQGSRESYYWGQGTQVTVSS	high polyreactivity
QVQLVESGGGLVQAGGSHRLSCAASGRIFRGYPMGWYRPAPGKERELGAAITSRGGSTYADSVKGRFTISRDNAKNTVYLQMNSLKPEDSAVYYCNAGYRAYSAKLVFRGYPRYDYWGQGTQVTVSS	low polyreactivity
QVQLVESGGGLVQAGGSHRLSCAASGRIFRPYAMGWYRQAPGKEREFVATITRSVGRTYYADSVKGRFTISRDNAKNTVYLQMNSLKPEDTAVYYCATKYIRGTRADVYRFDYWGQGTQVTVSS	high polyreactivity
QVQLVESGGGLVQAGGSHRLSCAASGRTFAPNAMGWYRQAPGKERELVAAISSVGITYYADSVNGRFTISRDNAKNTVYLQMNSLNPEDTAVYYCAKVRKTRSITDGYGYWGQGTQVTVSS	low polyreactivity
QVQLVESGGGLVQAGGSHRLSCAASGRTFGGNVMGWYRPAHWKERELVAAISSTGDRTYYADSVKGRFTISRDNAKNTVYLQMYSLKPEDTAVYYCAARPAYRSSYYWGQGTQVTVSS	high polyreactivity
QVQLVESGGGLVQAGGSHRLSCAASGRTFKLYAMGWYRQAPGKERELVAAITESGRSTYYADSVKGRFTFSRDNAKNTVYLQMNSLKPEDTAVYYCAALGIGSYRRYSGYDYWGQGTQVTVSS	low polyreactivity
QVQLVESGGGLVQAGGSHRLSCAASGRTFQENGMGWYRQAPGKERELVATISQRGTSTYYADSVKGRFTISRDNAKNTVYLQMNSLKPEDTAVYYCARRRVYRWYTGDYWGQGTQVTVSS	low polyreactivity
QVQLVESGGGLVQAGGSHRLSCAASGRTFRINAMGWYRQAPGKERELVAAISRSGGSTYYADSVKGRFTISRDNAKNTVYLQMTSVKPEDTAVYYCAARPYYTWRYLPTKSGDYWGQGTLVTVSS	low polyreactivity
QVQLVESGGGLVQAGGSHRLSCAASGRTFYQNAMGWYRQAPGKERELVATISQRGGSTYYADSVKGRFTISRDTAKNTVYLQMNSLKPEDTAVYYCAKGRYAYSIWDDYWGQGTQVTVSS	low polyreactivity
QVQLVESGGGLVQAGGSHRLSCAASGRTFYRYVMGWYRQAPGKERELVAAIRSSGTSTYYADSVKGRFTISRDNAKNTVYLQINSLKPEDTAVNYCARDSYRGYVYSLDYWGQGNQVTVSS	high polyreactivity
QVQLVESGGGLVQAGGSHRLSCAASGRTFYTNAMGWYRQEPGKERELVARIRRGGTTNYADSVKGRFTISRDNAKNTVYLQMNILKPEDTAVSYCNARRHGGVQPFYFYRNQYELDYWGLGTQVTVSS	high polyreactivity
QVQLVESGGGLVQAGGSHRLSCAASGSIFGVYVMGWYRQAPGKERELVAAITRGASTNYADSVKGRFTISRDNAKNSVYLQMNSLKPEDTAVYYCAARQVSVSGHQYGYWGQGSQVTVSS	low polyreactivity
QVQLVESGGGLVQAGGSHRLSCAASGSIFYQYAMGSYRQAPGKERELVAAITWIGSTYYADSVKGRFTISRDNAKNTVYLQMNSLKPEDTAVYYCNTDPYVLQKYDYWGQGTQVTVSS	low polyreactivity
QVQLVESGGGLVQAGGSHRLSCAASGSILDTYAMGWYRQAPGKERELVAAISRGGRTYYADSVKGRFTLSRDNAKNTVYLQMNSLKPEDTAVYYCNTLTRLVYDGMGYWGQGTQVTVSS	high polyreactivity
QVQLVESGGGLVQAGGSHRLSCAASGSILWENAMGWYIQAPRKERELVATISVSGGGTYYADSVKGRFTISRDKAKNTDYLQMNSLKPEDTAVYYCNARYGYESQGWEDYWGQGTQVTVSS	low polyreactivity
QVQLVESGGGLVQAGGSHRLSCAASGSISRRYAMGWYRQAPGKERELVAAINQSGGRTYYADSVKGRFTISRDNAKNTVYLQMNSLKPEDTAVYYCAARLSGYDYWGQGTQVTVSS	high polyreactivity
QVQLVESGGGLVQAGGSHRLSCAASGSTFLNNAMGWYRQAPGKERELVATITSGGITNYADSVKGRFTISRDNAKNTVYLQMNSLKPEDTAVYYCNGETWGFTYYYWGQGTQVTVSS	low polyreactivity
QVQLVESGGGLVQAGGSHRLSCAASGSTFNYYAMGWYRQAPGKERELVAAISRGGSTYYADSVKGRFTISRDNAKNTVYLQMNSLKPEDNAVYYCHARPTRIYHGMGFWGQGTQVNVSS	low polyreactivity
QVQLVESGGGLVQAGGSHRLSCAASGSTFTWYPMGWYRQEPGKERELVADISYGGGSTYYADSVKGRFTISRDNAKNTVYLQMNSLKPEDTAVYYCAAESIPYYRYDYWGQGTQVTVSS	low polyreactivity
